# Laboratory results: PMC4529235
# B1: ASIC1a-ΔCCt (H8-hASIC1a-C466A/C471A/C497A/C528Stop) [human] / itself (parent)
# chain: MELKAEEEEVGGVQPVSIQAFASSSTLHGLAHIFSYERLSLKRALWALCFLGSLAVLLCVCTERVQYYFHYHHVTKLDEVAASQLTFPAVTLCNLNEFRFSQVSKNDLYHAGELLALLNNRYEIPDTQMADEKQLEILQDKANFRSFKPKPFNMREFYDRAGHDIRDMLLSCHFRGEVCSAEDFKVVFTRYGKCYTFNSGRDGRPRLKTMKGGTGNGLEIMLDIQQDEYLPVWGETDETSFEAGIKVQIHSQDEPPFIDQLGFGVAPGFQTFVACQEQRLIYLPPPWGTCKAVTMDSDLDFFDSYSITACRIDCETRYLVENCNCRMVHMPGDAPYCTPEQYKECADPALDFLVEKDQEYCVCEMPCNLTRYGKELSMVKIPSKASAKYLAKKFNKSEQYIGENILVLDIFFEVLNYETIEQKKAYEIAGLLGDIGGQMGLFIGASILTVLELFDYAYEVIKHKLARRGKAQKEAKRSSADKGVALSLDDVKRHNPAESLRGHPAGMTYAANILPHHPARGTFEDFT
# Variants of: B1
# Test: BMOE crosslinking at the cell surface, SDS-PAGE under reducing conditions, anti-His-tag western blotting, band densitometry
# Conditions: with itself; mean ±SEM, n = 4; read off a plot
row,relative band intensity (densitometry),Variant
1,0.18,MELKAEEEEVGGVQPVSIQAFASSSTLHGLAHIFSYERLSLKRALWALCFLGSLAVLLVVSTERVQYYFHYHHVTKLDEVAASQLTFPAVTLCNLNEFRFSQVSKNDLYHAGELLALLNNRYEIPDTQMADEKQLEILQDKANFRSFKPKPFNMREFYDRAGHDIRDMLLSCHFRGEVCSAEDFKVVFTRYGKCYTFNSGRDGRPRLKTMKGGTGNGLEIMLDIQQDEYLPVWGETDETSFEAGIKVQIHSQDEPPFIDQLGFGVAPGFQTFVACQEQRLIYLPPPWGTCKAVTMDSDLDFFDSYSITACRIDCETRYLVENCNCRMVHMPGDAPYCTPEQYKECADPALDFLVEKDQEYCVCEMPCNLTRYGKELSMVKIPSKASAKYLAKKFNKSEQYIGENILVLDIFFEVLNYETIEQKKAYEIAGLLCDIGGQMGLFIGASILTVLELFDYAYEVIKHKLARRGKAQKEAKRSSADKGVALSLDDVKRHNPAESLRGHPAGMTYAANILPHHPARGTFEDFT [chain 1 G433C C59V C61S]
2,0.22,MELKAEEEEVGGVQPVSIQAFASSSTLHGLAHIFSYERLSLKRALWALCFLGSLAVLLVVCTERVQYYFHYHHVTKLDEVAASQLTFPAVTLCNLNEFRFSQVSKNDLYHAGELLALLNNRYEIPDTQMADEKQLEILQDKANFRSFKPKPFNMREFYDRAGHDIRDMLLSCHFRGEVCSAEDFKVVFTRYGKCYTFNSGRDGRPRLKTMKGGTGNGLEIMLDIQQDEYLPVWGETDETSFEAGIKVQIHSQDEPPFIDQLGFGVAPGFQTFVACQEQRLIYLPPPWGTCKAVTMDSDLDFFDSYSITACRIDCETRYLVENCNCRMVHMPGDAPYCTPEQYKECADPALDFLVEKDQEYCVCEMPCNLTRYGKELSMVKIPSKASAKYLAKKFNKSEQYIGENILVLDIFFEVLNYETIEQKKAYEIAGLLCDIGGQMGLFIGASILTVLELFDYAYEVIKHKLARRGKAQKEAKRSSADKGVALSLDDVKRHNPAESLRGHPAGMTYAANILPHHPARGTFEDFT [chain 1 G433C C59V]
